Values quoted from earlier work, collected in patent US20100298348A1, “Method of Decreasing Ubiquitylated Protein Levels” (priority 2009, published 2010).

B1: Uch-L1: ubiquitin hydrolase (protein, UniProt P09936 1-220, looked up)
Ubiquitin carboxyl-terminal …: MQLKPMEINPEMLNKVLSRLGVAGQWRFVDVLGLEEESLGSVPAPACALLLLFPLTAQHENFRKKQIEELKGQEVSPKVYFMKQTIGNSCGTIGLIHAVANNQDKLGFEDGSVLKQFLSETEKMSPEDRAKCFEKNEAIQAAHDAVAQEGQCRVDDKVNFHFILFNNVDGHLYELDGRMPFPVNHGASSEDTLLKDAAKVCREFTEREQGEVRFSAVALC

Columns and labels:
[1] = test system: gamma secretase; conditions: in vivo; cited from earlier work
[2] = test system: hippocampal slices; conditions: cited from earlier work
[3] = test system: mouse model of AD; conditions: cited from earlier work

Row | Molecule | outcome of Phase III clinical trial [1] | Aβ-induced decrease in synaptic function [2] | learning and memory [3]
1 | C[C@@H](C(=O)O)c1ccc(-c2ccccc2)c(F)c1 [Flurizan] | failed |  | 
2 | B1 |  | reverses | improves
